Our source for the Rubisco holoenzymes per EPYC1-Rubisco complex and Kd values is publication PMC9825591.

Assay [1] addresses EPYC1-GFP (Chlamydomonas reinhardtii). The assay can be described thus: fluorescence correlation spectroscopy (FCS); dilute phase of a phase-separated mixture, alongside condensates: EPYC1-GFP fixed at 20 nM, unlabeled EPYC1 1 to 4 μM, Rubisco 0.05 to 2 μM; laser aimed at a region away from condensates.
Assay [2] shares this target. Kind of assay: fluorescence correlation spectroscopy (FCS); 10 nM EPYC1-GFP with varying concentrations of unlabeled Rubisco in solution, one-phase region (no condensates); 20 mM Tris-HCl, 50 mM NaCl, pH 8.0; PEI-g-PEG coated coverslip; EPYC1-GFP diffusion coefficient against Rubisco concentration fitted with a quadratic binding equation; the authors consider the Kd an upper bound.

As a reminder, the Kd is the concentration at which binding is half-saturated. On to “Ribulose-1,5-bisphosphate carboxylase/oxygenase (Rubisco) holoenzyme, wildtype (from UniProt P00877 3-475; P00873 46-185) (complex)”, for which the Rubisco holoenzymes per EPYC1-Rubisco complex in assay [1] is 1. In assay [2], this substance returned a Kd of 0.029 µM and a Rubisco holoenzymes per EPYC1-Rubisco complex of 1.
